Laboratory results reported in patent US9688764B2, “Methods of treating breast cancer by administering anti-human prolactin receptor (PRLR) antibodies” (REGENERON PHARMACEUTICALS, INC., priority 2013, dated 2017).

T1: T47D (native PRLR expressing cell line) (Homo sapiens, UniProt P16471)
T1 construct: a native PRLR expressing cell line (T47D); endogenous in cells; host or cells: T47D
T1 sequence (P16471 25-622): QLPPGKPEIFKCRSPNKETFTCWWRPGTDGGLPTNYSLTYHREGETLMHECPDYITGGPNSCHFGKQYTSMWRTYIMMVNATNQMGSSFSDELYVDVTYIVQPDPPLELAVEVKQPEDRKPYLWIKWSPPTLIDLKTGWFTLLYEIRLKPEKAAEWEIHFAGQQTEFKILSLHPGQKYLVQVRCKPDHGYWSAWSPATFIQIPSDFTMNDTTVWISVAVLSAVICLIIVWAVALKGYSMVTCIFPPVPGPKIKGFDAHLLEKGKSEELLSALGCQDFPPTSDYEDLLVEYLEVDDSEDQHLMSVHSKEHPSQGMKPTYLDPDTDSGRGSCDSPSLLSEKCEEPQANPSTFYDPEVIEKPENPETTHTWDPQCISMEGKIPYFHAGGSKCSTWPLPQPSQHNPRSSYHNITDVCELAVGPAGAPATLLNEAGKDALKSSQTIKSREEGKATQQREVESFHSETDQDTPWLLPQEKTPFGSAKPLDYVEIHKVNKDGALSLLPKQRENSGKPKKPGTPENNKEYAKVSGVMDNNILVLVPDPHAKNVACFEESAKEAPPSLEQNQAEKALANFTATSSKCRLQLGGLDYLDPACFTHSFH

T2: HEK293/hPRLR (Homo sapiens, UniProt P16471)
T2 construct: HA; expressed in transfected cells; host or cells: HEK293
T2 sequence (P16471 25-622): T1 sequence (P16471 25-622)

T3: HEK293/mPRLR (Mus musculus, UniProt Q08501)
T3 construct: HA; expressed in transfected cells; host or cells: HEK293
T3 sequence (Q08501 20-608): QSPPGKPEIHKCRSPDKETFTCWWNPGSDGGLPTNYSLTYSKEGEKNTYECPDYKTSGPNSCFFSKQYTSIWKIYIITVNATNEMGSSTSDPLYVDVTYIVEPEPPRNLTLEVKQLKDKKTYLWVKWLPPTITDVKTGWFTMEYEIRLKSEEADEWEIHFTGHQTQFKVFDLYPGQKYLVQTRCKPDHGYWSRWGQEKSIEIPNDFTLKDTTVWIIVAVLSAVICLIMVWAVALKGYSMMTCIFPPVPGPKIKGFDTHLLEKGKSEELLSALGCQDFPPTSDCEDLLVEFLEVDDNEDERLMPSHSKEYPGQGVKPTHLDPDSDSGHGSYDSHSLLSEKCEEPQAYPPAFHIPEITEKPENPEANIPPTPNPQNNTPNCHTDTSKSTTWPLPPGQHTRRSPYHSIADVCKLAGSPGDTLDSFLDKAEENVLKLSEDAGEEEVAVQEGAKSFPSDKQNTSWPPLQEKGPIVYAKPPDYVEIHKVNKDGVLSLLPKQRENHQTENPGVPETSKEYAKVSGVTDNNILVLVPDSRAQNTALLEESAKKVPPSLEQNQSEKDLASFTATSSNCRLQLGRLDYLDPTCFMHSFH

B1: H1H6774P: anti-PRLR antibody, human IgG1 Fc; HCVR/LCVR SEQ ID NOs 34/42 (antibody, V domains shown)
VH: EVQLVESGGGLAQPGGSLRLSCVASGFTFSTYWMSWVRQAPGKGLDWVGNIKQDGSEQNYVDSVRGRFTISRDNAKNSLFLQMNSLRAEDTGVYYCATLLTKGDYWGQGTLVTVSS
VL: DIQMTQSPSSLSASVGDSVTITCRASQDISNYLDWFQQKPGKAPKSLIYAASILQGGVPSRFSGSGYGTDFTLTISSLQPEDFATYYCRQYKTYPFTFGPGTKVDIK
modifications: human IgG1 Fc
B2: H1H6762P: anti-PRLR antibody, human IgG1 Fc; HCVR/LCVR SEQ ID NOs 2/10 (antibody, V domains shown)
VH: QVQLVESGGGVVQPGRSLRLSCAASGFTFSHYGMVWVRQPPGKGLEWVALISFDGTTKYYADSVKGRFTISRDNSKNTLYLQMNSLRAEDTAVYFCVGAIAAAAFDLWGRGTLVTVSS
VL: EIVMTQSPATLSVSPGERATLSCRASQSVSSDLAWYQQKPGQAPRLLIYSASARATGIPARFTGSGSGTDFTLTISSLQSEDFAVYYCQQYNNWPMYTFGQGTKLEIK
modifications: human IgG1 Fc
B3: H1H6976N: human IgG1 Fc form of H2M6976N; anti-PRLR; HCVR/LCVR SEQ ID NOs 386/394 (antibody, V domains shown)
VH: EVQLLESGGGFVQPGGSLRLSCAASGFTFSSYAMSWVRQAPGKGLEWVSIISSNGRYTYYADSVKGRFTISRDNSKNTLYLQMNSLRAEDTAVYYCATVTGDWFDPWGQGTLVTVSS
VL: DIQLTQSPSFLSASVGDRVTITCWASQDIDISLAWYQQKPGKAPKLLIYAASTLQSGVPSKFSGSGSGTDFTLTISSLQPEDFSTYYCQQLNSYPITFGQGTRLDIK
modifications: human IgG1 Fc
B4: H1H6765P: anti-PRLR antibody, human IgG1 Fc; HCVR/LCVR SEQ ID NOs 18/26 (antibody, V domains shown)
VH: EVQLVESGGGVVRPGGSLRLSCVGSGFSFDDHGMNWVRQGPGKGLEWVSGFNWNGGSTNYAESVKGRFTISRDNARNSLFLQMNSLRAEDTALYYCVRGRSGWFNDAFDVWGPGTMVTVSS
VL: EIVLTQSPGTLSLSPGERATLSCRASQTINSNYLAWYRQKPGQTPRLLIYGTSSRATGIPDRFSGSGSGTDFSLTISRLEPEDFAVFYCQQYAGLPTFGPGTKVDIK
modifications: human IgG1 Fc
B5: H1H6782P: anti-PRLR antibody, human IgG1 Fc; HCVR/LCVR SEQ ID NOs 66/74; non-blocking (antibody, V domains shown)
VH: EVQLVESGGGLVQPGRSLRLSCAASGFTFDDYAMHWVRQAPGKGLEWVSGIIWNSGHIGYGDSVKGRFTISRDNAKKSLYLQMNSLRAEDTALYYCARDSGRYQSYFDYWGQGTLVTVSS
VL: DIQMTQSPSTLSASVGDRVTITCRASHIISSWLAWYQQKPGKAPKVLIFKASSLESGVPSRFSGSGSGTEFTLTISSLQPDDFATYYCQQYNTYSRTFGQGTKVEIK
modifications: human IgG1 Fc
B6: H1H6781P: anti-PRLR antibody, human IgG1 Fc; HCVR/LCVR SEQ ID NOs 50/58 (antibody, V domains shown)
VH: EVQLVESGGDLVQPGESLRLSCTASGFTFNSYEMNWVRQAPGKGLEWVSYISSSGGTKYYVDSVKGRFTISRDNAKKSLYLQMNSLRADDTALYYCARLNGVDVFDIWGQGTMVTVSS
VL: DIQMTQSPSSLSASVGDRVTITCRASQDIFNYLAWFQQKPGKVPELLISAASTLQSGVPSRFSGSGSGTYFTLTISSLQPEDIATYYCQRYNSAPLTFGGGTKVEIK
modifications: human IgG1 Fc

system: HEK293 (non-expressing parental cells); test: FACS cell surface binding; conditions: not given
Experimental: (§1) The ability of anti-PRLR antibodies to selectively bind PRLR expressing cell lines was next determined. Human, monkey macaca fascicularis, and mouse PRLR constructs with an HA tag were stably introduced into HEK293 cells via Lipofectamine 2000-mediated transfection methodology. Transfectants (HEK293/hPRLR, HEK293/mfPRLR and HEK293/mPRLR) were selected for at least 2 weeks in complete growth media plus G418.
(§2) Cell surface expression of PRLR on 293/hPRLR cells was assessed via FACS analysis. Briefly, 1×10^5 cells were incubated with 10 μg/ml of Control antibody I, or an isotype control for 30 min on ice in antibody dilution buffer. Following two washes with antibody dilution buffer, cells were incubated with 10 μg/ml of PE conjugated anti-human secondary antibodies for 30 min on ice. Following two additional washes, samples were run on a Hypercyt® cytometer and analyzed in FORECYT™ (IntelliCyt, Albuquerque, N. Mex.). The mean fluorescence intensities (MFI) were expressed as fold change above isotype control levels (background). FACS binding confirmed that Control I selectively bound to 293/hPRLR expressing cells with MFIs that were 30 fold above background (isotype ctrl) levels and less than 2 fold binding on parental cells.
(§3) Next, the anti-PRLR antibodies of the present invention were tested via FACS for selective binding to the engineered overexpressing PRLR HEK293 cell lines, as well as to non-expressing HEK293 cells and a native PRLR expressing cell line (T47D).

Molecule | FACS Cell Binding (Fold Above Background)
B1 | 1
B2 | 1
B3 | 1
B4 | 2
B5 | 3
B6 | 1

target: T1, T47D (native PRLR expressing cell line); test: FACS cell surface binding; conditions: not given
Experimental: as §1, §2, §3

FACS Cell Binding (Fold Above Background) | Molecule
39 | B1
38 | B2
37 | B3
40 | B4
43 | B5
40 | B6

target: T2, HEK293/hPRLR; test: FACS cell surface binding; conditions: not given
Experimental: as §1, §2, §3

FACS Cell Binding (Fold Above Background) | Molecule
1 | B1
36 | B2
8 | B3
38 | B4
41 | B5
37 | B6

target: T3, HEK293/mPRLR; test: FACS cell surface binding; conditions: not given
Experimental: as §1, §2, §3

FACS Cell Binding (Fold Above Background) | Molecule
1 | B1
2 | B2
1 | B3
1 | B4
4 | B5
1 | B6

system: HEK293/mfPRLR; test: FACS cell surface binding; design: species or system macaca fascicularis; conditions: not given
Sequence (as listed by the source): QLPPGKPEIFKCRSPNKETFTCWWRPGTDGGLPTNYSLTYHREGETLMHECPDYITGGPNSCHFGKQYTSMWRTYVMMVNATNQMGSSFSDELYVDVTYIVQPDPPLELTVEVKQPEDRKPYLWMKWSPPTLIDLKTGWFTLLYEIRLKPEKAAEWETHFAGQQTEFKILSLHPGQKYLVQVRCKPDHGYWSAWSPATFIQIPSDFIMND
Experimental: as §1, §2, §3

Molecule | FACS Cell Binding (Fold Above Background)
B1 | 29
B2 | 26
B3 | 29
B4 | 27
B5 | 32
B6 | 26

system: HEK293/hPRLR/STAT5-Luc cells (human PRLR); test: STAT5-Luc luciferase reporter assay, blocking of PRL-mediated receptor activation; type: cell-based; conditions: 5 nM constant PRL, 6 hr at 37° C.
Text: The ability of anti-PRLR antibodies to block prolactin (PRL)-mediated receptor activation was examined in a luciferase-based reporter assay. The endocrine hormone PRL binds to the extracellular domain of its cognate receptor PRLR, triggering rapid homodimerization and activating several downstream signaling cascades.
In this example, an engineered cell line was used to determine the ability of anti-PRLR antibodies to block ligand activation of the PRLR receptor. Briefly, HEK293/hPRLR/STAT5-Luc cell lines with stable incorporation of a human PRLR expression cassette and the STAT5-dependent luciferase reporter were generated via sequential rounds of Lipofectamine® 2000-mediated transfection (LifeTechnologies, Carlsbad, Calif.). Cells were selected for at least two weeks in the presence of 500 μg/mL G418 (hPRLR) and 100 μg/mL hygromycin B (STAT5-Luc). The STAT5-Luc assay utilized 2×10^5 HEK293/hPRLR/STAT5-Luc cells seeded in complete growth medium on PDL-coated 96 well plates grown overnight at 37° C., 5% CO2. To generate antibody inhibition curves, cells were incubated (6 hr at 37° C.) with serially diluted anti-human PRLR antibodies (100 nM to 24 pM) in the presence of 5 nM constant PRL before recording signal. PRL dose response curves were generated by the addition of serially diluted PRL (100 nM to 24 pM) to cells and recording signal after a 6 hr (37° C.) incubation in the absence of antibodies. The ability of the antibodies to activate PRLR in the absence of ligand was also assessed.
Luciferase activity was measured with ONE-GLO™ reagent (Promega, Madison, Wis.). Relative light units (RLUs) were measured on a Victor luminometer (Perkin Elmer, Shelton, Conn.). EC50/IC50 values were determined from a four-parameter logistic equation over an 8-point response curve using GraphPad Prism. Percent blocking and percent activation are reported for the highest antibody dose.

Molecule | IC50 [nM]
B2 | 0.0219
B4 | 0.033
B5 | > 100
B6 | 0.027

same assay, conditions: 100 nM antibody, 5 nM PRL

Molecule | Percent Blocking at 100 nM Antibody [%]
B1 | 0
B2 | 100
B3 | 23
B4 | 100
B5 | 0
B6 | 100
